Measurements taken from patent US20080020978A1 (Amgen, published 2008).
Bridge positions count the residues as written; N and C are the ends. Square brackets hold non-standard residues; d marks the D form. Oic = O=C(O)[C@@H]1C[C@@H]2CCCC[C@@H]2N1; 1Nal = N[C@@H](Cc1cccc2ccccc12)C(=O)O; hArg = N=C(N)NCCCC[C@H](N)C(=O)O; Tic = O=C(O)[C@@H]1Cc2ccccc2CN1; Cit = NC(=O)NCCC[C@H](N)C(=O)O

molecular target: CGRP1 receptor (CRLR/RAMP1 complex) of human neuroblastoma SK-N-MC cells (human, UniProt Q16602 23-461; O60894 27-148); assay: cell-based or functional assay
Sequence (Q16602 23-461, chain 1 of 2): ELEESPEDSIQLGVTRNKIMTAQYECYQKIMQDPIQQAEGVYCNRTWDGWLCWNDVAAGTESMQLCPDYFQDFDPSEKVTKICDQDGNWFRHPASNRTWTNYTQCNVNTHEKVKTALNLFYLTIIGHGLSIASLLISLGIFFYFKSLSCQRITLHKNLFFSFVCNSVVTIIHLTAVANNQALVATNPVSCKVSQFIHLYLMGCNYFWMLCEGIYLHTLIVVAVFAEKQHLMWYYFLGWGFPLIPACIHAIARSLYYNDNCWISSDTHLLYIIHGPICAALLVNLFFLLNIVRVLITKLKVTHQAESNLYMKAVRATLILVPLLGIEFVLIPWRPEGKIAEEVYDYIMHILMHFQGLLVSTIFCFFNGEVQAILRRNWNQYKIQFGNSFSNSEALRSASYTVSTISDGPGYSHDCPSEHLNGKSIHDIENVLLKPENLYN
Sequence (O60894 27-148, chain 2 of 2): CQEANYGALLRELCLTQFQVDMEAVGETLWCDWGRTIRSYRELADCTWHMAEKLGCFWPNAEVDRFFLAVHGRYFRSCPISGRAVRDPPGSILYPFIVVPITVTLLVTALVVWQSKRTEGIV

| Binder | Peptide IC50 [nM] | PEG-peptide IC50 [nM] |
| --- | --- | --- |
| Ac-WVTH[Cit]LAGLLSRPGGVVRKNFVPTDVGPFAF-NH2 (SMILES CC(=O)N[C@@H](Cc1c[nH]c2ccccc12)C(=O)N[C@H](C(=O)N[C@H](C(=O)N[C@@H](Cc1c[nH]cn1)C(=O)N[C@@H](CCCNC(N)=O)C(=O)N[C@@H](CC(C)C)C(=O)N[C@@H](C)C(=O)NCC(=O)N[C@@H](CC(C)C)C(=O)N[C@@H](CC(C)C)C(=O)N[C@@H](CO)C(=O)N[C@@H](CCCNC(=N)N)C(=O)N1CCC[C@H]1C(=O)NCC(=O)NCC(=O)N[C@H](C(=O)N[C@H](C(=O)N[C@@H](CCCNC(=N)N)C(=O)N[C@@H](CCCCN)C(=O)N[C@@H](CC(N)=O)C(=O)N[C@@H](Cc1ccccc1)C(=O)N[C@H](C(=O)N1CCC[C@H]1C(=O)N[C@H](C(=O)N[C@@H](CC(=O)O)C(=O)N[C@H](C(=O)NCC(=O)N1CCC[C@H]1C(=O)N[C@@H](Cc1ccccc1)C(=O)N[C@@H](C)C(=O)N[C@@H](Cc1ccccc1)C(N)=O)C(C)C)[C@@H](C)O)C(C)C)C(C)C)C(C)C)[C@@H](C)O)C(C)C) [SEQ ID NO 868] | 3 | – |
| Ac-WVTHRLAGLLPRSGGVVRKNFVPTDVGPFAF-NH2 (also: PEG-conjugated, in most cases at Lys25) [PEG-peptide of SEQ ID NO 858] | – | 5 |
| Ac-WVTHQLAGLLSQSGGVVRKNFVPTDVGPFAF-NH2 [SEQ ID NO 857] | 0.53 | – |
| WVTHXLAGLLSXSGGVVXKNFVXTDVGXFAX (Ac-WVTH[Cit]LAGLLS[Cit]SGGVV[hArg]KNFV[Oic]TDVG[Oic]FA[2-Nal]-NH2) [SEQ ID NO 948] | 2.57 | – |
| WVTHXLAGLLSXSGGVVXKNXVPTDVGXFAX (Ac-WVTH[Cit]LAGLLS[Cit]SGGVV[hArg]KN[2-Nal]VPTDVG[Oic]FA[2-Nal]-NH2) [SEQ ID NO 954] | 3.45 | – |
| WVTHXLAGLLSXSGGVVXKNXVXTDVGXFAX (Ac-WVTH[Cit]LAGLLS[Cit]SGGVV[hArg]KN[2-Nal]V[Oic]TDVG[Oic]FA[2-Nal]-NH2) [SEQ ID NO 955] | 3.57 | – |
| Ac-WVTHRLAGLLSRPGGVVRKNFVPTDVGPFAF-NH2 [SEQ ID NO 860] | 1.42 | – |
| Ac-WVTHRLAGLASRPGGVVRKNFVPTDVGPFAF-NH2 [SEQ ID NO 859] | 1.41 | – |
| Ac-WVTH[Cit]LAGLLS[Cit]SGGVVRKNFVPTDVG[Tic]FAF-NH2 [SEQ ID NO 957] | 4.32 | – |
| Ac-WVTHRLAGLLSQSGGVVRKNFVPTDVGPFAF-NH2 (also: PEG-conjugated, in most cases at Lys25) [PEG-peptide of SEQ ID NO 856] | – | 0.46 |
| Ac-WVTHRLAGLASRPGGVVRKNFVPTDVGPFAF-NH2 (also: PEG-conjugated, in most cases at Lys25) [PEG-peptide of SEQ ID NO 859] | – | 60.5 |
| WVTHXLAGLLSXSGGVVXKNFVPTDVGPXAF (Ac-WVTH[Cit]LAGLLS[Cit]SGGVV[hArg]KNFVPTDVGP[Tic]AF-NH2) [SEQ ID NO 947] | 89.9 | – |
| WVTHRLAGLLSXSGGVVRKNFVPTDVGPFAF (Ac-WVTHRLAGLLS[Cit]SGGVVRKNFVPTDVGPFAF-NH2; PEG-conjugated (Table 2C: in most cases at Lys^25)) [PEG-peptide of SEQ ID NO 862] | – | 0.96 |
| WVTHRLAGLLSXSGGVVRKNFVPTDVGPFAF (Ac-WVTHRLAGLLS[hArg]SGGVVRKNFVPTDVGPFAF-NH2; PEG-conjugated (Table 2C: in most cases at Lys^25)) [PEG-peptide of SEQ ID NO 864] | – | 0.33 |
| WVTHXLAGLLSRSGGVVRKNFVPTDVGPFAF (Ac-WVTH[Cit]LAGLLSRSGGVVRKNFVPTDVGPFAF-NH2) [SEQ ID NO 861] | 0.57 | – |
| WVTHXLAGLLSXSGGVVRKNFVPTDVGPXAF (Ac-WVTH[Cit]LAGLLS[Cit]SGGVVRKNFVPTDVGP[Tic]AF-NH2) [SEQ ID NO 962] | 10.1 | – |
| WVTHXLAGLLSXSGGVVXKNXVXTDVGPXAF (Ac-WVTH[Cit]LAGLLS[Cit]SGGVV[hArg]KN[pI-Phe]V[Oic]TDVGP[pI-Phe]AF-NH2) [SEQ ID NO 952] | 2.34 | – |
| WVTHXLAGLLSXSGGVVXKNFVXTDVGPXAX (Ac-WVTH[Cit]LAGLLS[Cit]SGGVV[hArg]KNFV[Oic]TDVGP[1-Nal]A[2-Nal]-NH2) [SEQ ID NO 949] | 2.73 | – |

| Binder | Peptide IC50 [nM] | PEG-peptide IC50 [nM] |
| --- | --- | --- |
| WVTHXLAGLLSXSGGVVXKNFVXTDVGPFAX (Ac-WVTH[Cit]LAGLLS[Cit]SGGVV[hArg]KNFV[Oic]TDVGPFA[2-Nal]-NH2) [SEQ ID NO 951] | 3.22 | – |
| WVTHRLAGLLSXSGGVVRKNFVPTDVGPFAF (Ac-WVTHRLAGLLS[Cit]SGGVVRKNFVPTDVGPFAF-NH2) [SEQ ID NO 862] | 0.58 | – |
| WVTHXLAGLLSRSGGVVRKNFVPTDVGPFAF (Ac-WVTH[Cit]LAGLLSRSGGVVRKNFVPTDVGPFAF-NH2; PEG-conjugated (Table 2C: in most cases at Lys^25)) [PEG-peptide of SEQ ID NO 861] | – | 2.08 |
| WVTHRLAGLLSXSGGVVRKNFVPTDVGPFAF (Ac-WVTHRLAGLLS[hArg]SGGVVRKNFVPTDVGPFAF-NH2) [SEQ ID NO 864] | 0.57 | – |
| WVTHXLAGLLSXSGGVVXKNFVPTDVGPXAF (Ac-WVTH[Cit]LAGLLS[Cit]SGGVV[hArg]KNFVPTDVGP[1-Nal]AF-NH2) [SEQ ID NO 960] | 2.24 | – |
| WVTHXLAGLLSRSGGVVRKNFVPTDVGPFAF (Ac-WVTH[hArg]LAGLLSRSGGVVRKNFVPTDVGPFAF-NH2; PEG-conjugated (Table 2C: in most cases at Lys^25)) [PEG-peptide of SEQ ID NO 865] | – | 0.36 |
| WVTHXLAGLLSRSGGVVRKNFVPTDVGPFAF (Ac-WVTH[hArg]LAGLLSRSGGVVRKNFVPTDVGPFAF-NH2) [SEQ ID NO 865] | 0.44 | – |
| WVTHXLAGLLSXSGGVVRKNFVPTDVGPFAF (Ac-WVTH[hArg]LAGLLS[hArg]SGGVVRKNFVPTDVGPFAF-NH2; PEG-conjugated (Table 2C: in most cases at Lys^25)) [PEG-peptide of SEQ ID NO 866] | – | 0.37 |
| WVTHXLAGLLSXSGGVVRKNFVPTDVGPFAF (Ac-WVTH[hArg]LAGLLS[hArg]SGGVVRKNFVPTDVGPFAF-NH2) [SEQ ID NO 866] | 2.1 | – |
| WVTHXLAGLLSXSGGVVXKNFVXTDVGPXAF (Ac-WVTH[Cit]LAGLLS[Cit]SGGVV[hArg]KNFV[Oic]TDVGP[Bip]AF-NH2) [SEQ ID NO 950] | 3.85 | – |
| Ac-WVTHRLAGLLSRPGGVVRKNFVPTDVGPFAF-NH2 (also: PEG-conjugated, in most cases at Lys25) [PEG-peptide of SEQ ID NO 860] | – | 16.7 |
| Ac-WVTH[Cit]LAGLLS[Cit]SGGVVRKNFVPTDVG[Tic]FAF-NH2 [SEQ ID NO 956] | 3.02 | – |
| Ac-KWVTH[Cit]LAGLLS[Cit]SGGVVRKNFVPTDVGPKAF-NH2 (SMILES CC(=O)N[C@@H](CCCCN)C(=O)N[C@@H](Cc1c[nH]c2ccccc12)C(=O)N[C@H](C(=O)N[C@H](C(=O)N[C@@H](Cc1c[nH]cn1)C(=O)N[C@@H](CCCNC(N)=O)C(=O)N[C@@H](CC(C)C)C(=O)N[C@@H](C)C(=O)NCC(=O)N[C@@H](CC(C)C)C(=O)N[C@@H](CC(C)C)C(=O)N[C@@H](CO)C(=O)N[C@@H](CCCNC(N)=O)C(=O)N[C@@H](CO)C(=O)NCC(=O)NCC(=O)N[C@H](C(=O)N[C@H](C(=O)N[C@@H](CCCNC(=N)N)C(=O)N[C@@H](CCCCN)C(=O)N[C@@H](CC(N)=O)C(=O)N[C@@H](Cc1ccccc1)C(=O)N[C@H](C(=O)N1CCC[C@H]1C(=O)N[C@H](C(=O)N[C@@H](CC(=O)O)C(=O)N[C@H](C(=O)NCC(=O)N1CCC[C@H]1C(=O)N[C@@H](CCCCN)C(=O)N[C@@H](C)C(=O)N[C@@H](Cc1ccccc1)C(N)=O)C(C)C)[C@@H](C)O)C(C)C)C(C)C)C(C)C)[C@@H](C)O)C(C)C) [SEQ ID NO 945] | 13 | – |
| Ac-WVTHQLAGLLSQSGGVVRKNFVPTDVGPFAF-NH2 (also: PEG-conjugated, in most cases at Lys25) [PEG-peptide of SEQ ID NO 857] | – | 6.21 |
| Ac-WVTH[Cit]LAGLLSRPGGVVRKNFVPTDVGPFAF-NH2 (also: PEG-conjugated, in most cases at Lys25) [PEG-peptide of SEQ ID NO 868] | – | 108 |
| Ac-WVTH[Cit]LAGELS[hArg]KGGVV[hArg]KNFVPTDVG[Oic][1Nal]AF-NH2 (lactam 9-13; SMILES CC(=O)N[C@@H](Cc1c[nH]c2ccccc12)C(=O)N[C@H](C(=O)N[C@H](C(=O)N[C@@H](Cc1c[nH]cn1)C(=O)N[C@@H](CCCNC(N)=O)C(=O)N[C@@H](CC(C)C)C(=O)N[C@@H](C)C(=O)NCC(=O)N[C@H]1CCC(=O)NCCCC[C@@H](C(=O)NCC(=O)NCC(=O)N[C@H](C(=O)N[C@H](C(=O)N[C@@H](CCCCNC(=N)N)C(=O)N[C@@H](CCCCN)C(=O)N[C@@H](CC(N)=O)C(=O)N[C@@H](Cc2ccccc2)C(=O)N[C@H](C(=O)N2CCC[C@H]2C(=O)N[C@H](C(=O)N[C@@H](CC(=O)O)C(=O)N[C@H](C(=O)NCC(=O)N2[C@H](C(=O)N[C@@H](Cc3cccc4ccccc34)C(=O)N[C@@H](C)C(=O)N[C@@H](Cc3ccccc3)C(N)=O)C[C@@H]3CCCC[C@@H]32)C(C)C)[C@@H](C)O)C(C)C)C(C)C)C(C)C)NC(=O)[C@H](CCCCNC(=N)N)NC(=O)[C@H](CO)NC(=O)[C@H](CC(C)C)NC1=O)[C@@H](C)O)C(C)C) [SEQ ID NO 944] | 0.85 | – |
| Ac-WVTHRLAGLLPRSGGVVRKNFVPTDVGPFAF-NH2 [SEQ ID NO 858] | 1.3 | – |
| Ac-WVTHRLAGLLSQSGGVVRKNFVPTDVGPFAF-NH2 [SEQ ID NO 856] | 0.47 | – |
